In PMC3758421 one finds binding signal data, which are given here for three molecules.

Holding throughout (test): Spinach sensor fluorescence
One data set concerns the target thrombin (human, UniProt P00734;P00734 315-363;364-622).
The target in the next data set is streptavidin (UniProt P22629 25-183).
In data set [1] the target is MS2 phage coat protein (MCP) (MS2 phage, UniProt P03612 2-130).
MS2 phage coat protein (MCP), sequence (P03612 2-130): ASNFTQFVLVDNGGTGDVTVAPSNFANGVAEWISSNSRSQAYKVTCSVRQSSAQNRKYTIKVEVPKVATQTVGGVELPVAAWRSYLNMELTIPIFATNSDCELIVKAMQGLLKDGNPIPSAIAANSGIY

streptavidin, sequence (P22629 25-183): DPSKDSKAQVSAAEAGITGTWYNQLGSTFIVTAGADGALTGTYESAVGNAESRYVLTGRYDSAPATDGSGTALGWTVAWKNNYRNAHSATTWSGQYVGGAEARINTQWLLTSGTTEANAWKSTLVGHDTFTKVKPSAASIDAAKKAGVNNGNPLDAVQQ

B1: thrombin sensor (Spinach fusion) (structured_RNA)
RNA: GACGCGACUGAAUGAAAUGGUGAAGGACGGGUCCAGGAACAAAGCUGAAGUACUUACCUUGUUGAGUAGAGUGUGAGCUCCGUAACUAGUCGCGUC
With B1, the binding signal with thrombin is 6.9 fold fluorescence increase.

B2: streptavidin sensor (Spinach fusion) (structured_RNA)
RNA: GACGCGACUGAAUGAAAUGGUGAAGGACGGGUCCACGACCGACCAGAAUCAUGCAAGUGCGUAAGAUAGUCGCGGGCCGGGGUUGUUGAGUAGAGUGUGAGCUCCGUAACUAGUCGCGUC
Take B2: the binding signal with streptavidin is 10.3 fold fluorescence increase.

B3: MCP sensor (Spinach fusion with MS2E) (structured_RNA)
RNA: GACGCGACUGAAUGAAAUGGUGAAGGACGGGUCCAAUGAGGAUCACCCAUUUGUUGAGUAGAGUGUGAGCUCCGUAACUAGUCGCGUC
Take B3: the binding signal in data set [1] was 41.7 fold fluorescence increase.
